The values below come from patent US20240092889A1 (Chugai, published 2024).

The target in test [1] is T1, recombinant human C1r2s2 tetramer (human, UniProt P09871 16-688; P00736 18-705).
T1 construct: C1s and C1r co-expressed in HEK293/FreeStyle 293-F and purified from conditioned medium
T1 chain 1: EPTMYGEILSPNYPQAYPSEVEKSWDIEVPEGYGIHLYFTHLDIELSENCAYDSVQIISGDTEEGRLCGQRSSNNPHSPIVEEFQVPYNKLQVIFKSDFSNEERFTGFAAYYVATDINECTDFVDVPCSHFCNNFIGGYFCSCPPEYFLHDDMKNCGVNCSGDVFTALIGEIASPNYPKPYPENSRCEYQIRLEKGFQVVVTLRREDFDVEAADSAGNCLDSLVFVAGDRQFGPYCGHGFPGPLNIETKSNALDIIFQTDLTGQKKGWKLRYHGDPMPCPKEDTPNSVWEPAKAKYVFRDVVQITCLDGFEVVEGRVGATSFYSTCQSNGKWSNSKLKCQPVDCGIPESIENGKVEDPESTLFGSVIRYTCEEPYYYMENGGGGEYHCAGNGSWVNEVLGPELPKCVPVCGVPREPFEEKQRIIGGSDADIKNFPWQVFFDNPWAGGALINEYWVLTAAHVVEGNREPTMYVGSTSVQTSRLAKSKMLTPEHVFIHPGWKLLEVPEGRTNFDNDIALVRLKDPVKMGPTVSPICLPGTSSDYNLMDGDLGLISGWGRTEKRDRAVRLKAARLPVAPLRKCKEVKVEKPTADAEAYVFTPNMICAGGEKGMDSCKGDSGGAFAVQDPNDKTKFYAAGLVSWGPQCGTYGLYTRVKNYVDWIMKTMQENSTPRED
T1 chain 2: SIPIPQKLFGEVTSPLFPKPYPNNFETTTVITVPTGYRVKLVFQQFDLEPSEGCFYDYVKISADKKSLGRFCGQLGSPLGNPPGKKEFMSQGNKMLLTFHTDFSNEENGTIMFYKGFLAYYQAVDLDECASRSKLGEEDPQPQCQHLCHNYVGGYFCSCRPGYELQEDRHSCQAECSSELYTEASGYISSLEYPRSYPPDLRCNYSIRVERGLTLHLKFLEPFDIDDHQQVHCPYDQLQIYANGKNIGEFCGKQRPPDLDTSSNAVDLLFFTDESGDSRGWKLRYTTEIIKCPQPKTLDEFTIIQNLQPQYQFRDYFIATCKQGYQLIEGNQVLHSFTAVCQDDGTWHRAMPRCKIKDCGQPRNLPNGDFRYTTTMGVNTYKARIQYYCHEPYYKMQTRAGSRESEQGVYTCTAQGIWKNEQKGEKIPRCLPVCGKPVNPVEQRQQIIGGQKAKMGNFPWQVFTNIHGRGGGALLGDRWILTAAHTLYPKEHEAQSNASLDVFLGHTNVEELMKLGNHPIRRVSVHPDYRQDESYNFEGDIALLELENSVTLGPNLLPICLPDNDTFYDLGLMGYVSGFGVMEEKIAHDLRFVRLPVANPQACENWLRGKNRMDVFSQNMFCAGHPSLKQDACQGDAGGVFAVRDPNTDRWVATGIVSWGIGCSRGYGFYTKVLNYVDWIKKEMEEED
Kind of test: SPR (BIACORE T200), IPN009VH2Vk3-SG1148 immobilised on the chip, human C1r2s2 injected for capture, pH 7.4, 37 C. From the text:
Recombinant human C1r2s2 tetramer was first captured onto the sensor surface by the anti-C1r2s2 antibody. The capture levels were aimed at 200 resonance unit (RU). […] The sensor surface was regenerated each cycle with 3 M MgCl2. Sensorgrams were obtained using BIACORE® T200 Evaluation software, version 2.0 (GE Healthcare). […] For comparison of these sensorgrams, binging response of C1r2s2 was normalized as 100 RU. […] For comparison of these sensorgrams, baseline (before injecting antibodies) was adjusted to 0 RU.
(In general: SPR reads the build-up and loss of mass on a sensor chip optically.)

Test [2] deals with T1, recombinant human C1r2s2 tetramer. Nature of the test: SPR (BIACORE T200), 37 C, ratio of KD at pH 5.8 to KD at pH 7.4. On the procedure:
(§1) KD (dissociation constant) value of each samples at pH 7.4 and pH 5.8 are determined at 37 degrees C. using BIACORE® T200 instrument (GE Healthcare). Purified Mouse Anti-Human Ig kappa Light Chain (GE Healthcare) can be immobilized onto all flow cells of a CMS sensor chip using an amine coupling kit (GE Healthcare). 20 mM ACES, 150 mM NaCl, 1.2 mM CaCl2, 1 mg/mL BSA (IgG-free), 1 mg/mL CMD, 0.05% Tween® 20, 0.005% NaN3, pH 7.4 or pH 5.8 buffer were used as running buffer. Each antibody can be captured onto the sensor surface by Anti-Human Ig kappa Light chain. Antibody capture levels are aimed at 50 resonance unit (RU). […] Sensor surface is regenerated each cycle with, e.g., Glycine pH 2.0 (GE Healthcare). KD values were obtained using BIACORE® T200 Evaluation software, version 2.0 (GE Healthcare).

Test [3] shares this target. Nature of the test: SPR (BIACORE T200), 37 C, Ab captured via anti-human Ig kappa, human C1r2s2 as analyte, pH 5.8; pH 5.8 (acidic buffer), 37 C; antibody engineered for pH-dependent binding. The method, then:
as §1

The target is the same in test [4]. Nature of the test: SPR (BIACORE T200), 37 C, Ab captured via anti-human Ig kappa, human C1r2s2 as analyte, pH 7.4; pH 7.4, 37 C. The method, then: as §1
The target is the same in test [5]. Nature of the test: SPR (BIACORE T200), 37 C, Ab captured via anti-human Ig kappa, human C1r2s2 as analyte, pH 7.4; pH 7.4, 37 C; kinetic KD, C1r2s2 up to 100-400 nM. The method, then:
as §1

B1: IPN009VH2VK3-SG1148 (antibody, human IgG1, kappa, V domains shown)
VH: EVMLVESGGGLVKPGGSLRLSCAASGFTFSNYAMSWVRQAPGKGLEWVATISSGGSHTYYLDSVKGRFTISRDNSKDTLYLQMNSLRAEDTALYYCARLFTGYAMDYWGQGTLVTVSS
VL: QIVLTQSPATLSLSPGERATLSCTASSSVSSSYLHWYQQKPGKAPKLWIYSTSNLASGVPSRFSGSGSGTDYTLTISSLQPEDFATYYCHQYYRLPPITFGQGTKLEIKR
notes: also called anti-human C1r2s2 antibody
In the case of B1, the binding result in test [1] is given as “binds”.

B2: COS0637pHv3-TT91R (antibody, V domains shown)
VH: QVQLVESGGGVVQPGRSLRLSCAASGFTFSAYAMNWIRQPPGKGLEWIGLIYGSGHEFYASWAEERVTISVDTSKNQFSLKLSSVTAADTAVYYCARGRSKNYVSGFHLWGQGTLVTVSS
VL: DIQMTQSPSSLSASVGDRVTITCQASQILHDKKNLAWYQQKPGQPPKLLIYQASQLESGVPSRFSGSGSGTDFTLTISSLQPEDFATYYCHGEFSYESADLNQFGQGTKVEIKR
The term Kd denotes the constant that tells how readily two partners part at equilibrium. Regarding B2, the “KD (pH 5.8)/KD (pH 7.4)” value in test [2] is 278. In addition, the results for the Kd in test [3] and in test [4] were 2130 nM and 7.66 nM, respectively.

B3: COS0637pHv5-TT91R (antibody, V domains shown)
VH: QVQLVESGGGVVQPGRSLRLSCAASGFSFSAYAMNWIRQPPGKGLEWIGLIYGSGHEFYASWAEERVTISVDTSKNQFSLKLSSVTAADTAVYYCARGRSKNYVSGFHLWGQGTLVTVSS
VL: DIQMTQSPSSLSASVGDRVTITCQASGILHDKKNLAWYQQKPGQPPKLLIYGASQLESGVPSRFSGSGSGTDFTLTISSLQPEDFATYYCHGEFSYEEADLNTFGQGTKVEIKR
Regarding B3, the equilibrium dissociation constant (Kd) in test [5] stood at 6.43 nM.
